Results reported in patent publication US20230331827A1, “POTASSIUM CHANNEL INHIBITORS” (priority 2017, published 2023).

B1: KB_A07: EETI-II knottin fused into VL CDR2, D1A12 VH; parental KnotBody, isotype control (antibody, V domains shown)
VH: EVQLVESGGGLVRPGGSLRLSCAASGFTFSSYAMSWVRQAPGKGLEWVSAISGSGGSTYYADSVKGRFTISRDNTKNSLYLQMTSLRADDTAFYYCVKDFGPGYGTGWFDYWGPGTLVTVSS
VL: DIQMTQSPSSLSASVGDRVTITCRASQSISSYLNWYQQKPGKAPKLLIYAAGVCPRILMRCKQDSDCLAGCVCGPNGFCGSRSGVPSRFSGSGSGTDFTLTISSLQPEDFATYYCQQGASPPYTFGQGTKVEIKRT
B2: KB_A12: EETI-II knottin fused into VL CDR2, D1A12 VH; parental KnotBody, isotype control (antibody, V domains shown)
VH: B1 VH
VL: QSVLTQPPSVSEAPRQRVTITCSGSSSNIGNNAVNWYQQLPGKAPKLLIYAAGRCPRILMRCKQDSDCLAGCVCGPNGFCGANSGVSDRFSAAKSGTSASLAINGLRSEDEADYYCAAWDDSLNGYVFGTGTKLTVLGQP

Experiments:
trypsin [1] = experiment: KnotBody Fab TRF binding assay on biotinylated trypsin; details: for TRF signal for 0.6 ug/mL Fab: Fab 0.6 ug/mL; for TRF signal for 2.4 ug/mL Fab: Fab 2.4 ug/mL; for TRF signal for 10 ug/mL Fab: Fab 10 ug/mL
Method: In order to confirm the trypsin binding ability of KnotBodies in Fab format, purified proteins were tested for binding to trypsin using a TRF binding assay. In this assay binding of KnotBody Fabs ([…]) to biotinylated trypsin (immobilised on streptavidin coated Maxisorp™ plates) was detected using a mouse anti-CH1 antibody followed by a europium conjugated anti-mouse antibody (Table 4). 7 KnotBodies (KB_A04, KB_A01, KB_A05, KB_A07, KB_A08, KB_A10, KB_A12) were chosen for crystallisation. DNA prepared for these clones were transfected into 500 ml HEK-293F cells as described before. Expressed proteins were purified using CaptureSelect IgG-CH1 affinity matrix. Purified proteins were initially subjected to crystallisation trials using commercially available crystallisation screens (Supplier). Well-defined crystals were readily obtained for KB_A12 and KB_A05. Crystallisation conditions for these two clones were further optimised and the following condition was used to generate diffraction quality crystals: 0.1 M MES pH=6.5, 25 %w/v PEG MME 2000 and 0.1 M Tris.Cl, 50% PEG MME, 10 mM NiCl2. Complete diffraction data was collected on these crystals at 100 K under liquid nitrogen stream. Collected data was processed using PROTEUM2 software (Bruker). The crystal structure of the knottin-fused Fab antibodies was resolved using molecular replacement technique^109 using Phenix software v 1.8.1-1168^110. Resulting structure was further refined using Phenix.Refine^111. The templates for molecular replacement were downloaded from PDB website (www.rcsb.org/pdb, PDB codes: 3G04 for light chain and 3QOS for heavy chain). KnotBody KB_A12 and KB_A05 sequences are given below. An additional AlaSer sequence is introduced at the N terminus of the light chain from the Nhe1 site used in cloning.
In order to compare the performance of the KnotBodies with short and long linkers, purified Fabs were tested for binding to trypsin by ELISA. In this assay binding of KnotBody Fabs (at 0.5 µg/ml) to biotinylated trypsin (5 µg/ml immobilised on streptavidin coated Maxisorp™ plates) was detected using a mouse anti-CH1 antibody (Hybridoma Reagent Laboratories) followed by a europium conjugated anti-mouse antibody (Perkin Elmer, Cat. No. AD0124). The trypsin binding capability of KB_A07 and KB_A12 KnotBodies were greatly diminished when the short selected linkers were replaced with long and flexible linkers (FIG. 22).

trypsin [2] = experiment: Phage TRF binding assay on immobilised biotinylated trypsin (monoclonal phage ELISA); details: for % reduction in binding signal: GlyAla mutant (Pro3, Arg4 of EETI-II substituted) versus the clone, monoclonal phage; for Tryspin binding signal (FU): monoclonal phage supernatant, biotinylated trypsin on neutravidin plates
Method: Phage display technology facilitates isolation of binders to any given target from large combinatorial repertoires based on proteins and peptides that can be presented on the surface of filamentous phage^105. In order to isolate functional knottin-antibody fusions from the KnotBody libraries multiple rounds of phage display selections on trypsin (cognate antigen for the EETI-II donor) were carried out. Phage particles were prepared by rescuing KnotBody libraries using trypsin cleavable helper phage ^102,106Two rounds of phage display selections were performed on 10 µg/ml biotinylated trypsin immobilised on Streptavidin (for Round-1) or Neutravidin (for round-2) coated Maxisorp™ immunotubes (Thermo Scientific, Cat No. 444202). In both rounds of selection, phage libraries were pre-incubated with streptavidin coated paramagnetic beads (Thermo Fisher Scientific, Cat. No. 11205D). These beads were removed prior to the addition the phage to the antigen tubes to limit the streptavidin binders entering the selection. Polyclonal phage preparations from round-2 selection outputs were analysed for trypsin binding using a time resolved fluorescence (TRF) binding assay. In this assay, polyclonal phage binding to biotinylated trypsin immobilised on neutravidin (Thermo Fisher Scientific, Cat. No 31000) coated Maxisorp™ plates (Thermo Scientific, Cat. No. 437111) was detected using a mouse anti-M13 antibody (GE Healthcare, Cat. No. 27-9420-01) followed by europium conjugated anti-mouse antibody (Perkin Elmer, Cat. No. AD0124).
In order to identify monoclonal KnotBodies with desired binding characteristics, 94 individual clones derived from 2 rounds of selection using EETI-II CDR1 or CDR2 libraries were picked into 96 well culture plates and phage were prepared from each clone. Methods for screening by monoclonal phage ELISA are known in the art^107. […] Clones with >3x binding signal above background were picked as positive clones and sequenced to identify unique clones. 14 and 42 unique binders were identified from EETI-II CDR1 and EETI-II CDR2 libraries respectively (Table 1). 18 binders from the EETI-II CDR2 library and 3 binders from the EETI-II-CDR1 library were chosen for further characterisation based on their VL and linker sequence diversity. These binders were assigned new clone identification numbers (Table 2).
The trypsin binding capability of EETI-II is attributed to proline (Pro3) and arginine (Arg4) residues present in its loop1 (GCPRILMRC; SEQ ID NO: 68). […] Monoclonal phage was prepared from the 21 selected clones and their mutant equivalents. […] Replacement of the trypsin-binding residues of EETI-II abolished the ability of all KnotBody clones to bind to trypsin (Table 3). In order to confirm that the loss of trypsin binding was not due to reduced expression or display of pIII fusion phage was prepared from 11 (randomly chosen) KnotBodies and their GlyAla variants were analysed on a western blot using an antibody which recognises the product of gene 3 (pIII) using an anti-pIII antibody (MoBiTec GmbH) (FIG. 6).
Bovine antibodies have been described with natural ultra-long VH CDR3s containing a solvent exposed double stranded antiparallel sheet approximately 20 A° in length (referred to as the stalk) presenting a folded domain stabilised by 3 disulfide bonds (referred to as the Knob)^10. Zhang and colleagues have shown that the Knob domains of these cow ultra-long VH CDR3 antibodies (ULVC-Ab) can be replaced with other folded proteins such as erythropoietin^13. In this example, we assess the ability of a cow ULVC-Ab to present functional knottin fusions on phage in comparison with a KnotBody. In order to create a Knottin-cow UCLA fusion, the sequence between the first and the last cysteines of the knob region of the Cow ULVC-Ab BLV1H12 was replaced with the sequence of the trypsin binding knottin; EETI-II (EETI-II cow ULVC-Ab). A gene fragment encoding this construct was synthesised (Integrated DNA technologies, Table 21). […]

Row | Molecule | TRF signal for 0.6 ug/mL Fab (trypsin [1]) | TRF signal for 2.4 ug/mL Fab (trypsin [1]) | TRF signal for 10 ug/mL Fab (trypsin [1]) | % reduction in binding signal (trypsin [2]) | Tryspin binding signal (FU) (trypsin [2]) | phage binding to trypsin (trypsin [2]; PEG precipitated phage, compared to EETI-II cow ULVC-Ab, FIG. 25)
1 | B1 | 107814 | 201003 | 226082 | 98% | 21448 FU | 
2 | B2 | 102132 | 221989 | 252832 | 99% | 69349 FU | superior binding to trypsin
